Laboratory results published in patent US11633499B2, “Anti-TMEM-180 antibody, anticancer drug and cancer testing method” (NATIONAL CANCER CENTER JAPAN, priority 2016, dated 2023).

T1: TMEM-180 (Homo sapiens, UniProt Q14CX5)
T1 construct: endogenous in cells; host or cells: DLD-1 colon cancer cell line (parent / wild type); culture supernatant exosomes in A20
T1 sequence (Q14CX5 1-517): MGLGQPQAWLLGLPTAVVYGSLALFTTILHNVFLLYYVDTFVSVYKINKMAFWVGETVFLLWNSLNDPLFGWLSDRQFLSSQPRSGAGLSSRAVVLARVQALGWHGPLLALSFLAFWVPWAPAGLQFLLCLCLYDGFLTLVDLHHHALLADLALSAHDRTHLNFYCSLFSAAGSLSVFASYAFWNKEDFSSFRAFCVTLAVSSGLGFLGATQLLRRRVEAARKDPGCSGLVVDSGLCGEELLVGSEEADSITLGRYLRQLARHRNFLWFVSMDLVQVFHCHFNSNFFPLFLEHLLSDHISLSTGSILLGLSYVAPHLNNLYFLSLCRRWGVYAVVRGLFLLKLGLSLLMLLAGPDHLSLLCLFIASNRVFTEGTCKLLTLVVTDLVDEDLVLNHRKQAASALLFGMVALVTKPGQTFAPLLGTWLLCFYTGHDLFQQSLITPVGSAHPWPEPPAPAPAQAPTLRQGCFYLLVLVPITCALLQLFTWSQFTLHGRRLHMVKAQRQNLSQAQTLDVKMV


Tests used:
colon cancer cell lines = test: Flow cytometry (FACS) with anti-TMEM-180 IgM clones, colon cancer; type: binding; conditions: six types of colon cancers; FIG. 3
Experimental: (§1) Cancer cells targeted for measurement were cultured in medium and then added to a V-bottom 96-well plate (Corning Incorporated) to a concentration of 1×10^5 cells/well. The plate was centrifuged for 3 minutes at 440×g and 4° C. followed by removing the supernatant, adding antibody-producing hybridoma culture supernatant or antibody solution to the cell pellet at 50 μL/well and suspending therein. After allowing to react for 45 minutes on ice, the plate was washed three times with a mixture of 0.1% BSA, 2 mM EDTA and PBS at 200 μL/well. The supernatant was removed and secondary antibody was added to the cell pellet at 50 μL/well followed by suspending the cells therein. ALEXAFLUOR 647@ (fluorescent compound) goat anti-rat IgG (H-L) (Life Technologies Corporation) was used for the secondary antibody after diluting 400-fold with a mixture of 0.1% BSA, 2 mM EDTA and PBS. After allowing to react for 45 minutes on ice, the plate was washed three times with a mixture of 0.1% BSA, 2 mM EDTA and PBS at 200 μL/well. After removing the supernatant, 50 ng/mL of propidium iodide, 0.1% BSA, 2 mM EDTA and PBS were added to the cell pellet at 250 µL/well followed by suspending therein. The cells stained in this manner were measured using a flow cytometer such as the Guava easyCyte 8HT (Merck Millipore Corporation) followed by analysis of the resulting data using FlowJO (Tomy Digital Biology Co., Ltd.). FACS analysis was carried out using colon cancer, brain tumor and hematologic cancer.

TMEM-180 = target: T1, TMEM-180; test: FACS of DLD-1 parent line and TMEM-180 knockout line; type: binding
Experimental: The plate was centrifuged for 3 minutes at 440×g and 4° C. followed by removing the supernatant, adding antibody-producing hybridoma culture supernatant or antibody solution to the cell pellet at 50 μL/well and suspending therein. After allowing to react for 45 minutes on ice, the plate was washed three times with a mixture of 0.1% BSA, 2 mM EDTA and PBS at 200 μL/well. The supernatant was removed and secondary antibody was added to the cell pellet at 50 μL/well followed by suspending the cells therein. […] After allowing to react for 45 minutes on ice, the plate was washed three times with a mixture of 0.1% BSA, 2 mM EDTA and PBS at 200 μL/well. […] The cells stained in this manner were measured using a flow cytometer such as the Guava easyCyte 8HT (Merck Millipore Corporation) followed by analysis of the resulting data using FlowJO (Tomy Digital Biology Co., Ltd.). FACS analysis was carried out using colon cancer, brain tumor and hematologic cancer.
Flow cytometry was carried out in accordance with the procedure described in the above-mentioned section 3. […] The supernatant of a culture of hybridoma producing rat IgM antibody clone 365 was used as a negative control after similarly diluting to 1 μg/mL. […] A mixture of RPMI and 10% FBS was used to dilute each of the antibodies. Furthermore, antibody concentration in the hybridoma culture supernatant was measured by rat IgM-specific ELISA (Bethyl Laboratories).

[1] = system: human colon cancer formalin-fixed section; test: Immunostaining of formalin-fixed section of human colon cancer surgical specimens; type: binding; conditions: 1 μg/mL, FIG. 6
Experimental: Anti-TMEM-180 IgM rat antibody (clone 98) was reacted with a colon cancer formalin-fixed section at 1 μg/mL. HRP-labeled anti-rat antibody was used as secondary antibody and the section was stained with DAB followed by post-staining with hematoxylin.

[2] = system: hematologic tumor K562 cells; test: Cytocidal effect of anti-TMEM-180 IgM antibody (WST-8), K562; type: cell-based; conditions: hybridoma culture supernatant adjusted to 80, 20 or 5 μg/mL, 96 hours, FIGS. 7 and 8
Experimental: (§2) DLD-1 cells and K562 cells were added to a 96-well plate at 1×10^3 cells/100 μL/well followed by culturing for 24 hours. 50 μL of medium were removed from each well of the 96-well plate followed by the addition of rat IgM antibody clone 98-producing hybridoma culture supernatant or rat IgM antibody clone 101-producing hybridoma culture supernatant, in which antibody concentration had been adjusted to 80 μg/mL, 20 μg/mL or 5 μg/mL, at 50 μL/well. Here, n number in each culture condition was 3, and wells containing medium only were prepared as controls. […] After culturing for 96 hours, WST-8 (Dojindo Laboratories, Cell Counting Kit-8) was added at 10 μL/well followed by measuring absorbance at 450 nm with a microplate reader after culturing for 3 hours. The relative values of absorbance at each antibody concentration were plotted by plotting antibody concentration on the horizontal axis and assigning a value of 1 to the optical absorbance of the well containing medium only. […] Cytocidal effects were also observed for other colon cancer cells Difi, Carl, SW480 and Colo201.

brain tumor cell lines = test: Flow cytometry (FACS) with anti-TMEM-180 IgM clones, brain tumor; type: binding; conditions: four types of brain tumors; FIG. 3
Experimental: as §1

DLD-1 colon cancer cells = test: Fluorescent immunostaining of DLD-1 colon cancer cells; type: binding, human; conditions: fixed and permeabilized DLD-1; antibody concentrations of clones not aligned; FIG. 4
Experimental: DLD-1 cells were added to a 96-well plate (Corning Incorporated, CeIIBIND) to a concentration of 5×10^3 cells/well and subjected to cell staining after culturing for 2 days. The cells were subjected to fixation and permeation treatment in the manner indicated below. After washing the cell culturing plate twice with PBS at 200 μL/well, the washings were removed followed by the addition of 4% para-formaldehyde-phosphate buffer (Wako Pure Chemical Industries, Ltd.) containing 0.1% TRITON™ (surfactant) X-100 (Wako Pure Chemical Industries, Ltd.) at 100 µL/well while cooling with ice and fixing the cells for 10 minutes. After removing the fixation solution, the plate was washed once with PBS at 200 μL/well and once with a mixture of 1% FBS in PBS at 200 μL/well to obtain a cell-immobilized plate. The cells were stained in the manner indicated below. Namely, after removing medium from the non-immobilized cell culturing plate and removing washings from the cell-immobilized plate, […] hybridoma culture supernatant or diluted antibody solution was added at 50 μL/well. After allowing to react for 1 hour on ice, the plate was washed once with PBS at 200 μL/well and twice with a mixture of 1% FBS in PBS at 200 μL/well. After removing the washings, a mixture of 5 μg/mL ALEXAFLUOR 647@ (fluorescent compound) goat anti-rat IgG (H-L), 2 μg/mL Hoechst 33342 and 1% FBS/PBS was added at 50 μL/well. After allowing to react for 1 hour on ice, the plate was washed twice with PBS at 200 μL/well. PBS was then added at 50 μL/well followed by measuring with ArrayScan (Thermo Fisher Scientific Inc.).

colon cancer DLD-1 cells = test: Cytocidal effect of anti-TMEM-180 IgM antibody (WST-8), DLD-1; type: cell-based, human; conditions: hybridoma culture supernatant adjusted to 80, 20 or 5 μg/mL, 96 hours, FIGS. 7 and 8
Experimental: as §2

wild type DLD-1 cells = test: ADCC activity (51Cr release, TK176V effector cells), wild type DLD-1; type: cell-based, human; conditions: ET ratio 40; 4 hours; 0.064 to 1,000 ng/mL; FIGS. 20A to 20D
Experimental: Specifically, TK176V (a natural killer cell line stably expressing FcγRIII) was used as an effector cell, which was obtained from Chemicals Evaluation and Research Institute, Japan. The wild type DLD-1 cell line was used as a target cell.
T1 76V was cultured in RPM11640 containing 10 ng/mL IL-2 and 10% FBS. For passages, the medium was diluted with a fresh medium every 2 to 3 days. In the passage, the cells were detached by a trypsin treatment and then suspended in a fresh medium to be plated on a dish every 2 to 3 days.
The measurement of the ADCC activity was performed as described below.
First, the amount of 51Cr release was measured when only the target cells were cultured in medium as a negative control, which is referred to as “Spontaneous release measurement”. The amount of 51 Cr release was measured when the all target cells were damaged by adding 0.1% TRITON™ (surfactant) X-100, which is referred to as “Max release measurement.”
1) Adding DLD-1 WT labelled with 50 μCi of ^51Cr to a U-bottom, 96 well plate at 5,000 cells/50 μL/well.
2) Adding TK176V at 200,000 cells/50 μL/well (ET ratio: 40): A medium was added at 50 μL/well to the well for Spontaneous release measurement and the well for Max release measurement. […]

Molecule | FACS reactivity to colon cancers (colon cancer cell lines) | FACS shift, TMEM-180 knockout line versus parent line (TMEM-180; DLD-1 parent line vs TMEM-180 knockout line, FIG. 5) | specific recognition of TMEM-180 (TMEM-180; conclusion from DLD-1 parent vs knockout FACS) | staining of colon cancer section ([1]; DAB) | localisation of staining in colon cancer cells [1] | cytocidal effects against K562 cells [2] | FACS reactivity to brain tumors (brain tumor cell lines) | fluorescent immunostaining (pattern, intensity) (DLD-1 colon cancer cells) | cytocidal effects against DLD-1 cells (colon cancer DLD-1 cells) | ADCC activity against wild type DLD-1 cells (wild type DLD-1 cells)
clone 98: rat IgM anti-TMEM-180 monoclonal antibody; heavy chain variable region SEQ ID NO: 13, light chain variable region SEQ ID NO: 14 (antibody, V domains shown) VH: MAVLVLLLCLVTFPTCVLSQVQLKESGPGLVQPSQTLSLTCTVSGFSLTRYNVHWVRQPTGKGLEWMGVIWTGGSTDYNSALKSRLSISRDTSKSQVFLKMNSLQTEDIATYYCARDLGYWGQGVMVTVSS VL: MMSPAQFLFLLMLWIQETHSDIVMTQTPLSLSVAIGQSASISCKSSQSLKYRDGKTYLNWVFQSPGQSPKRLIYQVSKLDSGVPDRFSGTGSETDFTLKISRVEAEDLGVYYCCQGSYSPHTFGAGTKLELK | positive for all six types of colon cancers | considerable left shift | specifically recognize TMEM-180 | stained specifically | Both the cell membrane and cytoplasm of the colon cancer cells were stained | did not demonstrate cytocidal effects | all four types of brain tumors | stained primarily in the membrane | demonstrated cytocidal effects | –
Variant 1: Fc-modified clone of 1361-5 with triple substitutions S239D/A330L/1332E in the Fc region (antibody) heavy: EVQLVESGGGLVQPGRSLKLSCVASGFTFNNYWMTWIRQAPGKGLEWVASITNTGGSTAYPDSVKGRFTISRDYAKSTLYLQMNSLRSEDTATYYCTRAGYSSYPDYFDYWGQGVMLTVSSASTKGPSVFPLAPSSKSTSGGTAALGCLVKDYFPEPVTVSWNSGALTSGVHTFPAVLQSSGLYSLSSVVTVPSSSLGTQTYICNVNHKPSNTKVDKKVEPKSCDKTHTCPPCPAPELLGGPDVFLFPPKPKDTLMISRTPEVTCVVVDVSHEDPEVKFNWYVDGVEVHNAKTKPREEQYNSTYRVVSVLTVLHQDWLNGKEYKCKVSNKALPLPEEKTISKAKGQPREPQVYTLPPSRDELTKNQVSLTCLVKGFYPSDIAVEWESNGQPENNYKTTPPVLDSDGSFFLYSKLTVDKSRWQQGNVFSCSVMHEALHNHYTQKSLSLSPGK light: MMAPVQLLGLLLLWLPAMRCNIQMTQSPSLLSASVGDRVTLSCKAGQNIYNYLAWYQQKLGEAPKLLIYNANSLQTGIPSRFSGSGSGTDFTLTISSLQPEDVATYFCQQYSSGWTFGGGTKLELKRTVAAPSVFIFPPSDEQLKSGTASVVCLLNNFYPREAKVQWKVDNALQSGNSQESVTEQDSKDSTYSLSSTLTLSKADYEKHKVYACEVTHQGLSSPVTKSFNRGEC | – | – | – | – | – | – | – | – | – | equal to or stronger than that of the 1361-5 antibody
Variant 2: Fc-modified clone of 1361-5 with triple substitutions S239D/1332E/E333A in the Fc region (antibody) heavy: EVQLVESGGGLVQPGRSLKLSCVASGFTFNNYWMTWIRQAPGKGLEWVASITNTGGSTAYPDSVKGRFTISRDYAKSTLYLQMNSLRSEDTATYYCTRAGYSSYPDYFDYWGQGVMLTVSSASTKGPSVFPLAPSSKSTSGGTAALGCLVKDYFPEPVTVSWNSGALTSGVHTFPAVLQSSGLYSLSSVVTVPSSSLGTQTYICNVNHKPSNTKVDKKVEPKSCDKTHTCPPCPAPELLGGPDVFLFPPKPKDTLMISRTPEVTCVVVDVSHEDPEVKFNWYVDGVEVHNAKTKPREEQYNSTYRVVSVLTVLHQDWLNGKEYKCKVSNKALPAPEAKTISKAKGQPREPQVYTLPPSRDELTKNQVSLTCLVKGFYPSDIAVEWESNGQPENNYKTTPPVLDSDGSFFLYSKLTVDKSRWQQGNVFSCSVMHEALHNHYTQKSLSLSPGK light: MMAPVQLLGLLLLWLPAMRCNIQMTQSPSLLSASVGDRVTLSCKAGQNIYNYLAWYQQKLGEAPKLLIYNANSLQTGIPSRFSGSGSGTDFTLTISSLQPEDVATYFCQQYSSGWTFGGGTKLELKRTVAAPSVFIFPPSDEQLKSGTASVVCLLNNFYPREAKVQWKVDNALQSGNSQESVTEQDSKDSTYSLSSTLTLSKADYEKHKVYACEVTHQGLSSPVTKSFNRGEC | – | – | – | – | – | – | – | – | – | equal to or stronger than that of the 1361-5 antibody
